Results on one substance are retold here after PMC10344970.

What all share (experiment): purified protein
Data set [1] has as its system CC(C)=CCC/C(C)=C/COP(=O)(O)OP(=O)(O)O. Conditions: co-substrate 1-hydroxynaphthalene (1), 50 mM Tris-HCl, 10 mM CaCl2, 5% DMSO, 37 °C, 15 min, substrate inhibition at 1.0 mM or higher.
Data set [2] relates to Oc1ccc2c(O)cccc2c1. Conditions: co-substrate 1 mM DMAPP, 50 mM Tris-HCl, 10 mM CaCl2, 5% DMSO, 37 °C, 15 min.
For data set [3], the system named is Oc1ccc2cccc(O)c2c1. The following applies: co-substrate 1 mM DMAPP, 50 mM Tris-HCl, 10 mM CaCl2, 5% DMSO, 37 °C, 15 min.

Regarding ShPT (Stereum hirsutum FP-91666 SS1), in data set [1], the Km is 1010 ± 50 µM, the kcat was determined as 0.36 ± 0.01 s⁻¹ and the kcat/Km came out at 357 M⁻¹ s⁻¹. Further, in data set [2], the Km is 660 ± 100 µM, the kcat stood at 0.13 ± 0.01 s⁻¹ and the kcat/Km came to 197 M⁻¹ s⁻¹. In data set [3], the Km was 920 ± 10 µM, the kcat stood at 0.46 ± 0.04 s⁻¹ and the kcat/Km was 511 M⁻¹ s⁻¹.
